Data from the DeepSol protein solubility set.

Assay: soluble on expression in E. coli; label from the status in PepcDB or PDB records

| Sequence | soluble on expression in E. coli |
| --- | --- |
| MQIEKIRDQKMKAVRVKKLSKLADEITINISGAKNALLHLIFASLIPDTKTKFTNVPITLLDYKGAKEILENVGAKVIEKDEEVTIDTAAISNETLELCGEMTSKTRCSLMLLGSLLKKKGRVKIGFPGGCSFSEKRPFDIHLNGLEALGAEVKLADDHIEVIYKEEKNAEFKMPFPSVGATMNLLMYAVTGNSEIVLENVALEPEVVTLIDYLNQCGANIDFDADSRKIKILGIMRLNGCEFEIIFDRIQAMTYAAMAYLYKTNVTITNINTQDTYSIKKPLEKLTNAGAKWEYNQANRSIKFFGKDSCIKGVDIIAAPFPHFPTDLQPIYAVMLFMANSSSTIQDTVYPERINYVYQIRKMGFNISIDNTLIKINPLKNLNDIRPAVMSVKDLRAGMACLMAGSLLDEFSTINNAHQIFRGYNNLIENMSHFMRIEILNDNV | not soluble |
| MQILNKILPQVEFAIPRPSFDSLSRNKLVKKILSVFNLKQRFPQKNFGCPVNINKIRDSVIDKIKDSNSGNQLFCWMSQERTTYVSSMINRSIDEMAIHNGVVLTSDNKRNIFAAIEKKFPDIKLDEKSAQTSISHTALNEIASSGLRAKILKRYSSDMDLFNTQMKDLTNLVSSSVYDKIFNESTKVLQIEISAEVLKAVYRQSNTNLEHHHHHH | not soluble |
| MQKKEKEGRRKLKYDSNDGLLPEIRRVCGFPHHISEELSARGSGKKKKQVEEEWKWPEAQICGICSSGGNILCCEQCPASFHLACIGYESSDLPDDNFYCNRCRNLPENVRLFPPEKCSPSVNPVLRVENENHRNWEAIEYHCNRLRDEEQAEKMKKDVAYGPKSEFAEIQDCFRDKNLLKALGMANPMDYTIPPEFQADRDCFSGDAMEDKRPTIMGEVCAECNLKDDWTRMLKCDFCDLIWHQKCVTPPLIHVRAYFYWMCPRHPETVIDSVLIGDEISREDRRRLYDKYADVEPSYEIFEEFCIKTEQFRMKSEVFDSEEMYYDPEEASTSFMQTVIKPRQTSRKTTGRSASKKKSNGRFFASSWDFPGLSSRETSPSRKNSRKSPDSVATERKDRVLDKIDKKRSIKLTEEEIIMSIMPVEESSRAEYLTQKMLGTDIEQSTNFFNRHSAMIDRIRAFYGNLPEKELIKLMREDLDPVETIRGGGTQSIISQNEKPYRKKLKADVEVLIQHVGLGTDSTERHFNSIGTEAFYRRCAPPVTARNVLNQKTLREVVLNSQKEAHEGAGVYEYHAEPEQLENLVLLAYEPSFESPEDRDTYFVPSMTIWSKEPICALTRKWAASGASKQAPPSSSSSEAPSVEAEVKEEVVEEEDEENEARMRRESTATSSIVYNNDTGPLEFIEENMPPPAATITEKSDPFDFSSLEMPEIHEKAETVYEAEGYYGESDDLPLDLRRTKSESDLVDRIIWPLVRSALQNFIRREDCHQMHLEHNYSSLYQTHDSDEENQPVVEVEKLITYEEYQENLYSAEFASPQTPPPIPPPPAVYYDNFSDAPRKRGRPVGSRNRKEGDTTIPKQQRKRNPQPVGRGRGRGGGRPRGSRSSRGSMDDGGGSRRHSTASDANESAELLNQPVTKQLRDEIKEIKLKYTKMMMDRGFEQAKDEYFRNRDAALSKWTPEQWKEHNEQCVAARLSSLIPYDQRYFLPTQRVLARLDLEDGDLRLPAVHLPIAIQRCVTKLGTAHDCHVRCDKLTGDAWCSVLADYHCDIVRDYYSDNFYISTLGTEAVFVDGRAVRRPRLTPFEAAEKLRTRGSSTIIPPHIKCRCQKHSDLQISRQESTGELVRCGILKLEHGARIQIGCVAFIFSRI | not soluble |
| MQKQAELYRGKAKTVYSTENPDLLVLEFRNDTSAGDGARIEQFDRKGMVNNKFNYFIMSKLAEAGIPTQMERLLSDTECLVKKLDMVPVECVVRNRAAGSLVKRLGIEEGIELNPPLFDLFLKNDAMHDPMVNESYCETFGWVSKENLARMKELTYKANDVLKKLFDDAGLILVDFKLEFGLYKGEVVLGDEFSPDGSRLWDKETLEKMDKDRFRQSLGGLIEAYEAVARRLGVQLD | soluble |
| MQKSKRNAKKKAVSTREKSARSSRGTNKSQRSARSKMAKPRTAETREDAYSCHRTMEEKSTNQQYSALSVRSETTSKVKKLPSKLDASLSARKKGKKESNEEDKKMRDSERQKREKKEVPKEMRQSMMGSVFEEIEGPVSPAPLEKDENKMEWKIDVDPVVLTGDQRMSDVLGKMKDLKKNSGWKKCKVLKANEKTPDNDDEPTEESIYLSARVLQLVKMESLISKEVSKEDQEILRGYCRSNDHKDKVEPIFEAIAVSILEKVASKNEFIRNVSIPGQLRMFAVDENKSKFSTMALLIVRCDLFYYSWNKPALDDEDQLDPTWANMTRRPSVTPPDSQ | not soluble |
| MQKSYGVALESPTGSGKTIMALKSALQYSSERKLKVLYLVRTNSQEEQVIKELRSLSSTMKIRAIPMQGRVNMCILYRMVDDLHEINAESLAKFCNMKKREVMAGNEAACPYFNFKIRSDETKRFLFDELPTAEEFYDYGERNNVCPYESMKAALPDADIVIAPYAYFLNRSVAEKFLSHWGVSRNQIVIILDEAHNLPDIGRSIGSFRISVESLNRADREAQAYGDPELSQKIHVSDLIEMIRSALQSMVSERCGKGDVRIRFQEFMEYMRIMNKRSEREIRSLLNYLYLFGEYVENEKEKVGKVPFSYCSSVASRIIAFSDQDEEKYAAILSPEDGGYMQAACLDPSGILEVLKESKTIHMSGTLDPFDFYSDITGFEIPFKKIGEIFPPENRYIAYYDGVSSKYDTLDEKELDRMATVIEDIILKVKKNTIVYFPSYSLMDRVENRVSFEHMKEYRGIDQKELYSMLKKFRRDHGTIFAVSGGRLSEGINFPGNELEMIILAGLPFPRPDAINRSLFDYYERKYGKGWEYSVVYPTAIKIRQEIGRLIRSAEDTGACVILDKRAGQFRKFIPDMKKTSDPASDIYNFFISAQAREKYGA | soluble |
| MQKYTIVDLNEKAEAELAAIAGELGIANAGSMPKQELIYKILDEQAISVAGVRKEKQKTTEDRHTERRKPGRPRKNAEEEAPESEDVAAAPAEPNDEEAQAKRKRGRPRKAAEEIAEETREDVQQLVALAAAEETNATEKESAGRKPAAKTSTASPAKAPAKALPRPAETTPRVAPSPPPTTPVSEPAKDDAKPETPAPPPAIESITTTPAAGAVDEGGARRLVFRHKNSSSVLDQVLPYSSPQPPQRPKPAGAPVGSSPIRQRQAAGVPTPRREPQQPLYNFDGILECM | not soluble |
| MQLDEDDMIINIFWADDRSISDYNLFGDVICFEQLIRPMHMIDPLLICRGQSSQANSCVW | not soluble |
| MQLFHKTVNRRGTHSIKWDTYKNEELIHAWIADMDFEVPQPIQTALKKRIEHPIFGYTLPPENIGDIICNWTKKQYNWDIQKEWIVFSAGIVPALSTSIQAFTKENESVLVQPPIYPPFFEMVTTNNRQLCVSPLQKQNDTYAIDFEHLEKQFQQGVKLMLLCSPHNPIGRVWKKEELTKLGSLCTKYNVIVVADEIHSDIIYADHTHTPFASLSEELAARTITCMAPSKTFNIAGLQASIIIIPNEKLRQAFTSIQYRQGFHGLNIFAYTAMQSAYTECNDWLNEIRFYIEDNAKFACEYIKDHIPTLSVMKPEGSFLLWIDCSALNLSQDERTKLLEEKGKIIVEPGEKYGLGGEEHIGINIGCPRSVLEEILNRLRHTFS | soluble |
| MQMLRNVHPVTEIQVSANMAEVRARVDFKVGAKSNIDAEILSFHGLQSDKEHVAVIFKSADTTQEAPLVRMHSECLTGDVFHSSRCDCGEQLEETITRMGQSGGIILYLRQEGRGIGLYNKIDAYRLQSQGMNTYEANNHLGFGDDLRDFTEAAQMLQALGVKKIRLVTNNPKKIRELQEHGIEIVEVVHTSAHIKDGNENYLKAKVSHGKHQLKL | not soluble |
| MQMQPKVGQFRYYPSVGSLNTYLTNMLEKIRVELPDIQRISFALYDEKKDSIKTCADSSPVSHDFVHYELPLANLPSLQQSKESGALRIIHDLANQAKSHTPHNRWLLEQQYCSSLVKPVFDQHTFVGFLFFNASMSHYFSASVVERLETYLSLIQQSICGEYALIHQLVDHVHQIETQSPEHWLHIKQHKERISRYARIIALDVADQYALDDELIENISQFATCHDLGKLALPADLLQKRASLANHEKEQVHNHIEYGIDLLNEVIAKLGTPHHPCLAVLREIMAYHHEFLDGSGYPFGLVSDQIPIPARIIAVANIFDALTAHRPYKQAQSIPHALLELEKMVSDGKLDRHCVNALRENQEELKEIVARFPEQDPKDQGITH | not soluble |
